From paper PMC2114693
pIC50: −log10 of the molar value.

Molecular target: human erythrocyte adducin (human) (UniProt P35611)
Experiment: co-sedimentation

Sequence of human erythrocyte adducin (human) (P35611 whole entry, chain 1 of 2): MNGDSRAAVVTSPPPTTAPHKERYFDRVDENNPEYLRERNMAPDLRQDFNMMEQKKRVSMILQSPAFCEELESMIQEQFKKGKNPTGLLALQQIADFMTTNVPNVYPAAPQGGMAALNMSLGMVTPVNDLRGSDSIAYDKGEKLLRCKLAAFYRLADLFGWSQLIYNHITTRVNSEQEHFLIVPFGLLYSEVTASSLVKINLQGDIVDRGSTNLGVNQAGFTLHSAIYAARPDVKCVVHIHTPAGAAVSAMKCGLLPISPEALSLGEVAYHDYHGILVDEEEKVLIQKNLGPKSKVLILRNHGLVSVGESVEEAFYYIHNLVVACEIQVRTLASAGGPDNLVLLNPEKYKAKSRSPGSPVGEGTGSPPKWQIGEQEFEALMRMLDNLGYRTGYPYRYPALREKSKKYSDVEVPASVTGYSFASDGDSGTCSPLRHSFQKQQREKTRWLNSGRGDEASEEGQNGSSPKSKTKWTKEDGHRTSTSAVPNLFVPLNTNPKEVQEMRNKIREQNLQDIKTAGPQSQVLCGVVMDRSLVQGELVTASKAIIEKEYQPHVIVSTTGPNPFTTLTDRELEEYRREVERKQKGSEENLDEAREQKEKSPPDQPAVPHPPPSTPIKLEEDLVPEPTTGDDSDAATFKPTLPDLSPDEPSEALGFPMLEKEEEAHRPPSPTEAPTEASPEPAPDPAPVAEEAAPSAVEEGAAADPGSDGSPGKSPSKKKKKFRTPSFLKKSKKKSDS
Sequence of human erythrocyte adducin (human) (P35612 whole entry, chain 2 of 2, further chain): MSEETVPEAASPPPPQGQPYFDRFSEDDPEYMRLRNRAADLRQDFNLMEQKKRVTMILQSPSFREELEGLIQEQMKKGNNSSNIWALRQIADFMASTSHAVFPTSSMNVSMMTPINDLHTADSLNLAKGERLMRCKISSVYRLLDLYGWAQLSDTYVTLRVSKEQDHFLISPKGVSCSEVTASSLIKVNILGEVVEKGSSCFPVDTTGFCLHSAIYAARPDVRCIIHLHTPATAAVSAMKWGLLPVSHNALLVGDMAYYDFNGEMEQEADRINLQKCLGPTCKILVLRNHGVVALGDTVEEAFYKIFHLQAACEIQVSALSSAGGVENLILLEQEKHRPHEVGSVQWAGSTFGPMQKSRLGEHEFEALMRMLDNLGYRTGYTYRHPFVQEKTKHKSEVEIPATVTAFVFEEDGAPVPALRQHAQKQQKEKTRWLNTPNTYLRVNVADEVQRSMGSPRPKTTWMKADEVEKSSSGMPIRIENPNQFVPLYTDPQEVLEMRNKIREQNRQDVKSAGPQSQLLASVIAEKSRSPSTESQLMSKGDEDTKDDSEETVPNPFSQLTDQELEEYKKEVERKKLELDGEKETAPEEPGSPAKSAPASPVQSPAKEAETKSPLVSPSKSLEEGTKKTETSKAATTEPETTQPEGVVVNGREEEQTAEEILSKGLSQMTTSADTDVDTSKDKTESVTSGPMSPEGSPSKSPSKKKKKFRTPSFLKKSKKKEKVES

## bovine brain calmodulin (from UniProt P62157 1-149) (natural protein)
  pIC50: 5.40
